# Literature values, collected in PMC4194041.
# Biological target: AP180 fragment with two D(L/I)(L/F) motifs (UniProt Q61548)
# Test: NMR
# UniProt Q61548, sequence (Q61548 623-680): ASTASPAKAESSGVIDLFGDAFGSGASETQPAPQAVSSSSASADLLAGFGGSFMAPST
substance,measurement,value
Clathrin heavy chain TD (from UniProt P11442),Kd,250 µM
